Assay results as given in patent publication US20190144550A1.

Tests used:
[1] = biological target: wild-type EGFR expressed on cells (human), P00533; assay: flow cytometry, F98-EGFRwt cells; settings: remark: other sources report otherwise
[2] = biological target: wild-type EGFR expressed on cells (human), P00533; assay: flow cytometry, A431 cells; settings: remark: other sources report otherwise

Binder	% positive [1] [%]	MFI [1]	MFI [2]	% positive [2] [%]
20G5 (antibody, V domains shown) VH: EVQLVESGGDLVKPGGSLRLSCAASGFTFTNAWMSWVRQAPGKGLEWVGRIKSKIDGGTTDYAAPVKGRFIISRDDSKNTLSLQMNSLKTEDTAMYYCTTAPGGPFDYWGQGSLVTVSS VL: DIVLTQSPLSLPVTPGEPASISCRSSQSLLYSDRRNYLDWFLQKPGQSPHLLIYLGSYRASGVPDRFSGSGSGTDFTLKISRVEAEDVGVYYCMQALQIPITFGQGTRLEIK	12.6	1070	391	
21E7 (antibody, V domains shown) VH: QVTLEESGPVLVKPTETLTLTCTVSGFSLSNARMGVSWIRQPPGKAPEWFAHIFSTDEKSLRLSLRSRLTLSKDTSKSQVVLTMTNMDPVDTATYYCARDSSNYEGYFDYWGQGTLVTVSS VL: DVVLTQSPATLSVSPGERATLSCRASQSVNSNLAWYQQNPGQAPRLLIFGSSTRATGIPASFSGSGSGTEFTLTINSLQSEHSAVYYCQQYNDWPFTFGPGTKVDIK	1.3	184	603	1.1
14C11 (antibody, V domains shown) VH: QVTLKESGPVLVKPTETLTLTCTVSGFSLNNARMGVSWIRQPPGKALEWFAHIFSTDEKSFRTSLRSRLTLSKDTSKSQVVLTMTNMDPVDTATYYCARDSSNYEGYFDYWGQGILVTVSS VL: EIVMTQSPATLSVSPGERATLSCRASQSVSNNLAWYQQKPGQAPRLLIYGASTRATGVPARFSGSDSGTEFSLTISSLQSEDFAVYFCQQYKDWPFTFGPGTKVEIK	1.3	185	580	0.8
19A9 (antibody, V domains shown) VH: QVTLEESGPVLVKPTETLTLTCTVSGFSLSNARMGVSWIRQPPGKAPEWFAHIFSTDEKSLRLSLRSRLTLSKDTSKSQVVLTMTNMDPVDTATYYCARDSSNYEGYFDYWGQGTLVTVSS VL: EVVMTQSPATLSVSPGERATLSCRASQSVNRNLAWYQQKPGQAPRLLIFGTSTRATGIPARFSGSGSGTEFTLTIDSLQSEHSGLYYCQQYNDWPFTFGPGTKVDIK	1.6	168	578	
12H6 (antibody, V domains shown) VH: QVTLKESGPVLVKPTETLTLTCTVSGFSLSNARMGVSWIRQPPGKALEWLAHIFSTDEKSIRRSLRSRLTLSKDTSKSQVVLTMTNMDPVDTATYYCARDSSNYEGYFDYWGQGTLVTVSS VL: EVVMTQSPATLSVSPGERATLSCRASQGVSSNFAWYQQRPGQSPRLLLYGASTRATGVPGRFSGSGSGTENILTISSLQSEDFAIYFCQQYKDWPFTFGPGSKVDIK	1.9	188	569	0.8
20B9 (antibody, V domains shown) VH: QVTLKESGPVLVKPTETLTLTCTVSGFSLSNARMGVSWIRQPPGKALEWLGHIFSTDEKSYSTSLRGRITISKDTSRGLVVLTLTNMDPVDTATYYCARDSSNYEGYFDFWGPGFLVTVSS VL: EIVMTQSPATLSVSPGERATLSCRVSQSIGANLAWYQQKFGQAPRLLIYGASTRATGIPVRFSGGGSGTEFTLTISSLQSEDFAIYSCQQYIYWPFTFGPGTTVDIK	1.8	189	558	
20E12 (antibody, V domains shown) VH: EVNLVESGGGLVKPGGSLRLSCEASGFTFSYAWMSWVRQAPGKGLEWVGRIKSIADGGATDYAAPVRNRFTISRDDSRNTLYLEMHSLKTEDTAVYYCTTIPGNDAFDMWGQGTMVTVSS VL: DIVLTQSPLSLSVTPGEPASISCRSSQSLLYSNGKNYLDWFLHKPGQSPQLLIYLGSNRASGVPDRFSGSGSGIDFILKISRVEAEDVGVYYCMQAQQTPITFGQGTRLEIK	3.4	348	302	2.6
11B11 (antibody, V domains shown) VH: QVTLKESGPVLVKPTETLTLTCTVSGFSLSNAKMGVSWIRQPPGKALEWLAHIFSTDEKSIRRSLRSRLTMSKDTSKSQVVLTMTNMDPVDTATYYCVRDSSNYEGYFDYWGQGTLVTVSS VL: EVLMTQSPATLSVSPGERATLSCRASQSVSTNFAWYQQRPGQAPRLLLFGASTRATGIPGRFSGSGSGTENILTISSLQSEDFAIYFCQQYKDWPFTFGPGSKVEIK	1.7	187	589	
12B2 (antibody, V domains shown) VH: QVTLKESGPVLVKPTETLTLTCTVSGFSLSNPRMGVSWIRQPPGKALEWLGHIFSSDEKSYRLSLRSRLSISKDTSKSQVVLTMTNMDPVDTATYYCVRDSSNYGGYFDYWGQGTLVTVSS VL: EVVMTQSPATLSVSPGERATLSCRASQSVINNLAWYQQKPGQAPRLLIYGTSTRATDIPARFSGSGSGTEFTLTISSLQSEDFAVYYCQDYNNWPFTFGPGTKVDIK	1.5	185	571	0.8
11F10 (antibody, V domains shown) VH: QVTLKESGPVLVKPIETLTLTCTVCGFSLSNPRMGVSWIRQPPGKALEWLGHIFSSDEKSYRLFLRSRLSISKDTSKSQVVLTMTNMDPVDTATYYCARDSSDYEGYFDYWGQGTLVTVSS VL: EIVMTQSPATLSVSPGERTTLSCRASQSVGSNLAWYQQKPGQAPRLLIYGASTRASGVPARFSGSGSGTEFTLTISSLQSEDFAVYSCQEYNNWPFTFGQGTKVEIK	1.6	187	582	1.1

The next lines start with the values.

% positive [1] [%]	MFI [1]	MFI [2]	% positive [2] [%]	Binder
2.3	298	276	1.7	26B9 (antibody, V domains shown) VH: EVQLVESWGVLVKPGGSLRLSCAASGFIFNNAWMSWVRQAPGKGLEWIGRIKSKSDGGTTDYAAPVKDRFTISRDDSKDTLYLQMNGLKTEDTAVYFCTTAPGGPFDYWGQGTLVTVSS VL: DIVLTQSPLSLPVTPGEPASISCRSSQSLLHRDGFNYLDWFLQKPGQSPQLLIYLASSRASGVPDRFSGSDSGTDFTLKISRVEAEDVGVYYCMQALQTPITFGQGTRLEIK
1.3	184	555		21E11 (antibody, V domains shown) VH: QVTLKESGPVLVKPTETLTLTCTVSGFSLSNVRMGVSWIRQPPGKALEWFAHIFSSDEKSIRRSLRSRLTLSKDTSKSQVVLTMTNMDPVDTATYYCARDSSNYEGYFDFWGQGTLVTVSSN VL: DMVVTQSPATLSVSPGERATLSCRASQSVGSDLAWYQQPPGQSPRLLIYGASTRATGVPARFSGSGSGTDFTLTITSLESEDFAVYYCQQYNDWPFTFGPGTKVDIK
1.6	185	538	0.3	42G9 (antibody, V domains shown) VH: QVTLKESGPVLLKPTETLTLTCTVSGFSLSNPRMGVSWIRQPPGKALEWFAHIFSTDEKSLKLSLRSRLTLSKDTSKSQVVLTMTNMAPVDSATYYCARDSSNYEGYFDFWGQGTLVTVSS VL: EVVLTQSPATLSVSPGERATLSCRASQSVRSNLAWYQQKSGQAPRLLIYGSTIRATGVPARFSGSGSGTEFTLTISSLQSEDFAVYYCQQYSDWPFTFGPGTKVDIK
1.3	185	599	0.8	49B11 (antibody, V domains shown) VH: QVTLKESGPVLVKPTETLTLTCTVSGFSLSNVRMGVSWIRQPPGKALEWFAHIFSSDEKSIRRSLRSRLTLSKDTSKSQVVLTMTNMDPVDTATYYCARDSSNYEGYFDYWGQGTLVTVSS VL: EMEVTQSPATLSVSPGERATLSCRASQNIGSDLAWYQQQSGQAPRLLISGASTRATGVPTRFSGSGSGTDFTLTITSLQSEDFAVYYCQQYNDWPFTFGPGTKVDIK
	185	531		32A10 (antibody, V domains shown) VH: QVTLKESGPVLVKPTETLTLTCTVSGFSLSNARMGVSWIRQPPGKALEWLAHIFSTDEKSIRRSLRSRLTLSKDTSKSQVVLTMTNMDPVDTATYFCARDSSNYEGYFDYWGQGTLVTVSS VL: EVVMTQSPATLSVSPGERVTLSCRASQSVSSNFAWYQQRPGQAPRLLLYGATTRATGLPGRFSGSGSGTENILTISSLQSEDFAIYFCQQYKDWPFTFGPGSKVDIK
1.6	187	560		46E10 (antibody, V domains shown) VH: QVTLKESGPVLVKPTETLTLTCTVSGFSLSNARMGVSWIRQPPGKALEWLAHIFSTDEKSIRRSLRSRLTLSKDTSKSQVVLIMTNMDPVDTATYYCARDSSNYEGYFDYWGQGTLVTVSS VL: EVVMTQSPPNLSVSPGERATLSCRASQSVTSNFAWYQQRPGQSPRLLLYGASTRATGVPGRFSGSGSGTENILTISSLQSEDFAVYFCQQYKDWPFTFGPGSKVDIK
1.7	280	269	1.3	30D8 (antibody, V domains shown) VH: EVQLVESGGGLVKPGGSLRLSCEASGFTFSDAWMSWVRQAPGKGLEWVGRIKSKTDGGTTDYVVPLNGRFIISRDDSRNTLYLQLNNLKTEDTAVYYCTTVPGSYGYWGQGTLVTVSS VL: DIVMTQSPLSLPVTPGEPASISCRSSQSLLHNKRNNYLDWFLQKPGQSPQLLIYLASNRASGVPDRFSGGGSGTDFTLKISRVEAEDVGVYYCMQAQQTPITFGQGTRLEIK
1.6	301	271		32G8 (antibody, V domains shown) VH: EVNLVESGGGLVKPGGSLRLSCEASGFTFSYAWMSWVRQAPGKGLEWVGRIKSITDGGVIDYAAPVRNRCTISRDDSRNTLYLEMHSLKTEDTAVYYCTTIPGNDDFDMWGQGRMVTVSS VL: DIVLTQSPLSLSVTPGEPASISCRSSQSLLYSNGKNYLDWFLHKPGQSPQLLIYLGSNRASGVPDRFSGSGSGIDFILKISRVEAEDVGVYYCMQAQQTPITFGQGTRLEIK
1.3	185	531	0.4	29D5 (antibody, V domains shown) VH: QVTLKESGPVLVKPTETLTLTCTVSGFSLSNPRMGVSWLRQPPGKALEWFAHIFSTDEKSYSPSLRGRLTVSKDTSKSQVVLTLTNMDPVDTATYYCARDSSNYEGYFDYWGQGTLVTVSS VL: KIVMTQSPATLSVSPGERATLSCRANQIVSSNLAWYQQKPGQAPRLLVFGTSTRATGIPIRFSGSGSGTEFTLTVSSLQSEDFAVYVCQQYNDWPFTFGPGTKVDIK
